The values that follow come from publication PMC2918618, “Characterization of the TnsD-attTn7 complex that promotes site-specific insertion of Tn7” (Mobile DNA, 2010).

Data set [1] concerns the target T1, TnsD wt (Escherichia coli (transposon Tn7)) (UniProt P13991).
T1 sequence: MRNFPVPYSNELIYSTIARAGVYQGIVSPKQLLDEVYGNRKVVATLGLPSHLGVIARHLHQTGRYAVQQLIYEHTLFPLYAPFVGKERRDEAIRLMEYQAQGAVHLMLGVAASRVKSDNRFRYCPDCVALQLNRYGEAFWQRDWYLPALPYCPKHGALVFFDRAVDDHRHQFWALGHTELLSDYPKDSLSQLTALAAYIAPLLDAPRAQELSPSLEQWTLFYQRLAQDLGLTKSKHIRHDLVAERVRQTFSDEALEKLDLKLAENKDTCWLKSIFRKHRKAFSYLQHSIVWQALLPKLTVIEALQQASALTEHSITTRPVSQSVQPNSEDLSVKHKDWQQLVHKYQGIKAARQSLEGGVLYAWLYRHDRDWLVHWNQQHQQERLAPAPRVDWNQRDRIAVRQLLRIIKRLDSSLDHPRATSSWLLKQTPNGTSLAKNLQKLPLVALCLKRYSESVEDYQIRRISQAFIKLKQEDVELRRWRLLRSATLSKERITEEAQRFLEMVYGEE
Description: EMSA. Conditions: Gel-shift buffer not given (as described in ref. 6); TnsD stored in 500 mM KCl, 50 mM Tris-HCl pH 8.0, 1 mM EDTA, 2 mM DTT, 25% glycerol. (Mobility shift assays separate free from complexed probe on a gel.)

In the next data set the target is RB. Description: two-hybrid; yeast two-hybrid (ProQuest Two-Hybrid System); TnsD in pDBLeu (Gal4-DB), TnsC in pPC86 (Gal4-AD); read-out β-galactosidase activity; empty vectors gave 0.075.
Sequence of RB (P06400 2-928): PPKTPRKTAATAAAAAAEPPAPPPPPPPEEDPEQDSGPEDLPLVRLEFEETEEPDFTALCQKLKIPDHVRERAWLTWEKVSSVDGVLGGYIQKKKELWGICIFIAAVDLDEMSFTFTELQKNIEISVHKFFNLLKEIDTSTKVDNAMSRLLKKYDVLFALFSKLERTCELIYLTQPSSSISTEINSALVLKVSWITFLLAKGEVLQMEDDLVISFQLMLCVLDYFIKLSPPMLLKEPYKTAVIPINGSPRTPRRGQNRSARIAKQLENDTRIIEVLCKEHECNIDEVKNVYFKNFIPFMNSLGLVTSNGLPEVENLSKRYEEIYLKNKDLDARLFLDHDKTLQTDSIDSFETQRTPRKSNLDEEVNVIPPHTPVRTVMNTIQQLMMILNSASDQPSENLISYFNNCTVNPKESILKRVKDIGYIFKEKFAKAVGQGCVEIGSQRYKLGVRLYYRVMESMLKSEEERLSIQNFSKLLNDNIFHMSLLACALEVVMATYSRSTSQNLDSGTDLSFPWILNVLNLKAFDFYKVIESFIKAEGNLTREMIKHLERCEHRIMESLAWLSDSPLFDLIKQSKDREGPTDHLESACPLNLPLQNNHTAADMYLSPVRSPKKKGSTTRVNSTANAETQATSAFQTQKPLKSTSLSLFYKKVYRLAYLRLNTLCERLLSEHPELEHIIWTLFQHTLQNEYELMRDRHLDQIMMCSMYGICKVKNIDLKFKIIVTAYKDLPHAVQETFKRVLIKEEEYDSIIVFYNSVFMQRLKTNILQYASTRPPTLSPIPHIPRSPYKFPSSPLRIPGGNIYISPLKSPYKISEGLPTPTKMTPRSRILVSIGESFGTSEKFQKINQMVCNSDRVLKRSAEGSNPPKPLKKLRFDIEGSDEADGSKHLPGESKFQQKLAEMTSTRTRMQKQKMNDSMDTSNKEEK
A further data set addresses Jun. The data set is described as above.
For another data set, the target named is T2, TnsD (1 to 507) wt (E. coli (transposon Tn7), UniProt P13991 1-508).
T2 construct: TnsD, target site-selector protein of the bacterial transposon Tn7, residues 1 to 507 (full-length TnsD is 507 aa); TnsD was cloned into pDBLeu (ProQuest Two-Hybrid System); also called full-length TnsD; source: yeast two-hybrid fusion
T2 sequence (looked up): T1 sequence
The data set is described as above. The settings on record: partners not purified.

A further data set has as its target T3, TnsD (1 to 350) (E. coli (transposon Tn7), UniProt P13991 1-350).
T3 construct: TnsD of transposon Tn7, residues 1 to 350; source: yeast two-hybrid fusion
T3 sequence (looked up): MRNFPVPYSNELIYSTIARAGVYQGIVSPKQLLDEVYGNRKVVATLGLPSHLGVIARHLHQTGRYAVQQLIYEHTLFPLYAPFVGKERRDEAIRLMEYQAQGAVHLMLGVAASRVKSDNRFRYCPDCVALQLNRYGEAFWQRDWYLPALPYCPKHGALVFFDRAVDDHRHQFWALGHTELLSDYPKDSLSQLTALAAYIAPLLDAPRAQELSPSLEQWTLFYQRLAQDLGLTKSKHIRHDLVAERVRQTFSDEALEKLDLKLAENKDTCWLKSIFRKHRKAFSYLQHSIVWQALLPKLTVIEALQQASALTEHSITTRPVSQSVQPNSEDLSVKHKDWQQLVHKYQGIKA
The data set is described as above. Conditions: partners not purified.

In another data set the target is T4, TnsD (1 to 375) (E. coli (transposon Tn7), UniProt P13991 1-375).
T4 construct: TnsD of transposon Tn7, residues 1 to 375; source: yeast two-hybrid fusion
T4 sequence (looked up): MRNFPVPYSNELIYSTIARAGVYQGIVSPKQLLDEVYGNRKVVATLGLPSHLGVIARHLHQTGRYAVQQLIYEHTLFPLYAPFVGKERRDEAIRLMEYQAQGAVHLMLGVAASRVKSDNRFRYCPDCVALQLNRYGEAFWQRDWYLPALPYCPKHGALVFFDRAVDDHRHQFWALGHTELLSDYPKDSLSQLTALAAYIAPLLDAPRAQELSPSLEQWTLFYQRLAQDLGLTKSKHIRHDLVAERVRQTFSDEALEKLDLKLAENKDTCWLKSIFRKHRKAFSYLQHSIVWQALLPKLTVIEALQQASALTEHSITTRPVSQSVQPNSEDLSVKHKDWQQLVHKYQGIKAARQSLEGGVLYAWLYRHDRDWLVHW
The data set is described as above. Conditions: partners not purified.

The target in another data set is T5, TnsD (1 to 399) (E. coli (transposon Tn7), UniProt P13991 1-399).
T5 construct: TnsD of transposon Tn7, residues 1 to 399; source: yeast two-hybrid fusion
T5 sequence (looked up): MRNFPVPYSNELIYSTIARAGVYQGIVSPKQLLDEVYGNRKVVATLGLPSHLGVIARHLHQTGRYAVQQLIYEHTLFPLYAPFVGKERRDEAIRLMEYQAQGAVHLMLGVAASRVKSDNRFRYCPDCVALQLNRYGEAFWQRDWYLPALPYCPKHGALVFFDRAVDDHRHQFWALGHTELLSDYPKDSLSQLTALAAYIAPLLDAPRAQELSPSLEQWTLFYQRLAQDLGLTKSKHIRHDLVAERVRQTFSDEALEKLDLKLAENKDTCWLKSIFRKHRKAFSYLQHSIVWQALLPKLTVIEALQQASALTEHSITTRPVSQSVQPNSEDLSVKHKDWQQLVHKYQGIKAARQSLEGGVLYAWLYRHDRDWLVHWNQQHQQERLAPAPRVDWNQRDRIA
The data set is described as above. Conditions: partners not purified.

The next data set deals with T6, TnsD (1 to 309) (E. coli (transposon Tn7), UniProt P13991 1-309).
T6 construct: TnsD of transposon Tn7, residues 1 to 309; source: yeast two-hybrid fusion
T6 sequence (looked up): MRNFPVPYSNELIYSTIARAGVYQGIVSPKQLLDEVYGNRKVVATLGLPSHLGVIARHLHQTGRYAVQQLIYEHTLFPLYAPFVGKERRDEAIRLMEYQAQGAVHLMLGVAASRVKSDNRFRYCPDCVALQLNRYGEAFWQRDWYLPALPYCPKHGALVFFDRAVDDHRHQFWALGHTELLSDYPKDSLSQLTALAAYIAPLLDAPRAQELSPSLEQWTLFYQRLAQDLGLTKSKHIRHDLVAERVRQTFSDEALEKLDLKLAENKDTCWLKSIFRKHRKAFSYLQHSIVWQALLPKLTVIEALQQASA
The description is as above. The settings on record: partners not purified.

Sequence of Jun (P05627 whole entry): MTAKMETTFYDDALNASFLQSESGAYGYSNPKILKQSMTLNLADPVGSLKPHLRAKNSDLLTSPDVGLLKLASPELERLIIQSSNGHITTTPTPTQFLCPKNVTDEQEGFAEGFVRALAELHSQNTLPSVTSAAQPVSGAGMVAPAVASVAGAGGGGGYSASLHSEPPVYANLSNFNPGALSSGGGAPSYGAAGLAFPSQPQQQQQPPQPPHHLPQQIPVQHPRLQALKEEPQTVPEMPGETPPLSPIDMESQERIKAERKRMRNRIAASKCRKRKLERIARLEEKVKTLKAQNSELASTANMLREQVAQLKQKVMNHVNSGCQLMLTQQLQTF

In the case of “CCGCGTAACCTGGCAAAATCGGTTACGGGTGAGTAA (double strand) [attTn7 +30 mutant]”, the binding signal (relative to wt site) in data set [1] came out at 0.5.
Still for that read-out and setting: next, “CCGCGTAACCTGGCAACATCGGTTACGGTTGAGTAA (double strand) [attTn7 +42 mutant]”: less than 0.2; “CCGCGTACCCTGGCAAAATCGGTTACGGTTGAGTAA (double strand) [attTn7 +51 mutant]”: less than 0.2.
In the case of E2F1 (natural protein), the β-galactosidase activity with RB is 1.
“CCGCGTAACCGGGCAAAATCGGTTACGGTTGAGTAA (double strand) [attTn7 +48 mutant]”: the binding signal (relative to wt site) in data set [1] came to 0.5.
“CCGCTTAACCTGGCAAAATCGGTTACGGTTGAGTAA (double strand) [attTn7 +54 mutant]”: in data set [1], the binding signal (relative to wt site) was less than 0.2.
Turning to “CCGCGTAACCTGGCAAAATCGGTTAAGGTTGAGTAA (double strand) [attTn7 +33 mutant]”, in data set [1], the binding signal (relative to wt site) was less than 0.2.
Still for that read-out and setting: next, “CCGCGTAACCTGGAAAAATCGGTTACGGTTGAGTAA (double strand) [attTn7 +45 mutant]”: less than 0.2.
In the case of Fos (natural protein), the β-galactosidase activity with Jun is 5.
Turning to “CCGCGTCACCTGGCAAAATCGGTTACGGTTGAGTAA (double strand) [attTn7 +52 mutant]”, the binding signal (relative to wt site) in data set [1] turned out to be 0.5.
Same read-out and setting: with “CCGCGTAACCTGGCAAAATCGTTTACGGTTGAGTAA (double strand) [attTn7 +37 mutant]” the figure was 0.5.
On the same count and under the same terms, next, “CCGCGTAACCTGGCACAATCGGTTACGGTTGAGTAA (double strand) [attTn7 +43 mutant]”: less than 0.2.
For the molecule “CCGCGTAACCTGGCAAAATCGGTTACGTTTGAGTAA (double strand) [attTn7 +31 mutant]”, the binding signal (relative to wt site) in data set [1] was less than 0.2.

B1: TnsC (1 to 480) (domain or fragment, E. coli (transposon Tn7), UniProt P05846 1-480, looked up)
chain: MSATRIQAVYRDTGVEAYRDNPFIEALPPLQESVNSAASLKSSLQLTSSDLQKSRVIRAHTICRIPDDYFQPLGTHLLLSERISVMIRGGYVGRNPKTGDLQKHLQNGYERVQTGELETFRFEEARSTAQSLLLIGCSGSGKTTSLHRILATYPQVIYHRELNVEQVVYLKIDCSHNGSLKEICLNFFRALDRALGSNYERRYGLKRHGIETMLALMSQIANAHALGLLVIDEIQHLSRSRSGGSQEMLNFFVTMVNIIGVPVMLIGTPKAREIFEADLRSARRGAGFGAIFWDPIQQTQRGKPNQEWIAFTDNLWQLQLLQRKDALLSDEVRDVWYELSQGVMDIVVKLFVLAQLRALALGNERITAGLLRQVYQDELKPVHPMLEALRSGIPERIARYSDLVVPEIDKRLIQLQLDIAAIQEQTPEEKALQELDTEDQRHLYLMLKEDYDSSLLIPTIKKAFSQNPTMTRQKLLPLVL
notes: TnsC of transposon Tn7, residues 1 to 480; also called TnsC with deletion of 75 amino acids from the C terminus; source: yeast two-hybrid fusion
In the case of B1, the β-galactosidase activity in the data set with TnsD (1 to 507) wt worked out at 1.

B2: TnsC (1 to 555) wt (natural protein, E. coli (transposon Tn7), UniProt P05846 1-555, looked up)
chain: MSATRIQAVYRDTGVEAYRDNPFIEALPPLQESVNSAASLKSSLQLTSSDLQKSRVIRAHTICRIPDDYFQPLGTHLLLSERISVMIRGGYVGRNPKTGDLQKHLQNGYERVQTGELETFRFEEARSTAQSLLLIGCSGSGKTTSLHRILATYPQVIYHRELNVEQVVYLKIDCSHNGSLKEICLNFFRALDRALGSNYERRYGLKRHGIETMLALMSQIANAHALGLLVIDEIQHLSRSRSGGSQEMLNFFVTMVNIIGVPVMLIGTPKAREIFEADLRSARRGAGFGAIFWDPIQQTQRGKPNQEWIAFTDNLWQLQLLQRKDALLSDEVRDVWYELSQGVMDIVVKLFVLAQLRALALGNERITAGLLRQVYQDELKPVHPMLEALRSGIPERIARYSDLVVPEIDKRLIQLQLDIAAIQEQTPEEKALQELDTEDQRHLYLMLKEDYDSSLLIPTIKKAFSQNPTMTRQKLLPLVLQWLMEGETVVSELEKPSKSKKVSAIKVVKPSDWDSLPDTDLRYIYSQRQPEKTMHERLKGKGVIVDMASLFKQAG
notes: TnsC, transposition protein of the bacterial transposon Tn7, residues 1 to 555 (full-length is 555 aa); TnsC was cloned into pPC86 (ProQuest Two-Hybrid System); also called full-length TnsC; source: yeast two-hybrid fusion
Regarding B2, the β-galactosidase activity with TnsD (1 to 350) stood at 4.5; with TnsD (1 to 375), 5; with TnsD (1 to 399), 4.5; with TnsD (1 to 507) wt, 1; in the data set with TnsD (1 to 309) it was 4.5.

B3: TnsC (1 to 293) (domain or fragment, E. coli (transposon Tn7), UniProt P05846 1-293, looked up)
chain: MSATRIQAVYRDTGVEAYRDNPFIEALPPLQESVNSAASLKSSLQLTSSDLQKSRVIRAHTICRIPDDYFQPLGTHLLLSERISVMIRGGYVGRNPKTGDLQKHLQNGYERVQTGELETFRFEEARSTAQSLLLIGCSGSGKTTSLHRILATYPQVIYHRELNVEQVVYLKIDCSHNGSLKEICLNFFRALDRALGSNYERRYGLKRHGIETMLALMSQIANAHALGLLVIDEIQHLSRSRSGGSQEMLNFFVTMVNIIGVPVMLIGTPKAREIFEADLRSARRGAGFGAIFW
notes: TnsC of transposon Tn7, residues 1 to 293; source: yeast two-hybrid fusion
In the case of B3, the β-galactosidase activity with TnsD (1 to 507) wt is 0.2.

B4: TnsC (1 to 384) (domain or fragment, E. coli (transposon Tn7), UniProt P05846 1-384, looked up)
chain: MSATRIQAVYRDTGVEAYRDNPFIEALPPLQESVNSAASLKSSLQLTSSDLQKSRVIRAHTICRIPDDYFQPLGTHLLLSERISVMIRGGYVGRNPKTGDLQKHLQNGYERVQTGELETFRFEEARSTAQSLLLIGCSGSGKTTSLHRILATYPQVIYHRELNVEQVVYLKIDCSHNGSLKEICLNFFRALDRALGSNYERRYGLKRHGIETMLALMSQIANAHALGLLVIDEIQHLSRSRSGGSQEMLNFFVTMVNIIGVPVMLIGTPKAREIFEADLRSARRGAGFGAIFWDPIQQTQRGKPNQEWIAFTDNLWQLQLLQRKDALLSDEVRDVWYELSQGVMDIVVKLFVLAQLRALALGNERITAGLLRQVYQDELKPVHP
notes: TnsC of transposon Tn7, residues 1 to 384; also called TnsC with deletion of 171 amino acids from the C terminus; source: yeast two-hybrid fusion
On to B4, for which the β-galactosidase activity with TnsD (1 to 507) wt amounted to 1.
